Positions count from the first letter of the chain named. One block for each molecule: values may come before it.
Columns and labels:
[1] = target: 人IL-23 (human IL-23, p19/p40 heterodimer) (human) (UniProt P29460); test: SPR (BIAcore), antibody captured on protein A CM5 chip, human IL-23 in flow, HBS-EP pH 7.4, 25 °C
[2] = target: 人IL-23 (human IL-23, p19/p40 heterodimer) (human) (UniProt P29460); test: cell-based or functional assay
[3] = target: T1, 人IL-23 (human IL-23, p19/p40 heterodimer) (human, UniProt P29460 23-328); test: SPR (BIAcore)
T1 construct: Bought human IL-23 (R&D Systems); also called hIL-23; 成熟IL-23
T1 sequence 1: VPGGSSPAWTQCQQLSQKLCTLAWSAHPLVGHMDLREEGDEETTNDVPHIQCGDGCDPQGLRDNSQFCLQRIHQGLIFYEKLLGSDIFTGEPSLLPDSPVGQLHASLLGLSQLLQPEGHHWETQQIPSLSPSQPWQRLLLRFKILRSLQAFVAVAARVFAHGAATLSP
T1 sequence 2: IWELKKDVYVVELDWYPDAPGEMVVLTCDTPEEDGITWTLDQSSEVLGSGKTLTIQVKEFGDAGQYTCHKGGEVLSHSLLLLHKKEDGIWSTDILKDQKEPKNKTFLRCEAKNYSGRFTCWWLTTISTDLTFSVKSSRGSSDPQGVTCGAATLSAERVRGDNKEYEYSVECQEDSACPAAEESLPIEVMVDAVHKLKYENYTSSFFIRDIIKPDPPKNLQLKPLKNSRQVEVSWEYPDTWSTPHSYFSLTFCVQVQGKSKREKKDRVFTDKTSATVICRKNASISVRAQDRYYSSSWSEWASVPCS

[4] = target: T1, 人IL-23 (human IL-23, p19/p40 …); test: cell-based or functional assay

Kd [1]: 21.4 nM | koff [1]: 0.000768 s⁻¹ | kon [1]: 36800 M⁻¹ s⁻¹ | IC50, 小鼠脾细胞测定法 (IL-23-stimulated IL-17 secretion of mouse splenocytes) [2]: 2.8 nM
Molecule: MAB1290 (小鼠抗人IL-23单克隆抗体, 安迪生物科技 R&D Systems) (antibody)

Kd [3]: < 0.16 nM | IC50, 小鼠脾细胞测定法 [4]: < 0.02 nM | IC50, 小鼠脾细胞测定法 (IL-23-stimulated IL-17 secretion of mouse splenocytes) [4]: 0.002 nM
B1: MAbQF20 (antibody, V domains shown)
VH: QVQLVQSGAEVKKPGASVKVSCKVSGKTFWSYGINWVRQAPGKGLEWMGYIYIGTGYTEPNPKYKGRVTMTEDTSTDTAYMELSSLRSEDTAVYYCATIGGYYGNFADWGQGTTVTVSS
VL: DVVMTQSPLSLPVTLGQPASISCRSSQSLLISGGKTYLNWFQQRPGQSPRRLIYLVSKLDQGVPDRFSGSGSGTDFTLKISRVEAEDVGVYYCWQGTYFPLTFGQGTKLEIK
notes: Humanised antibody

Kd [3]: < 0.16 nM | IC50, 小鼠脾细胞测定法 [4]: < 0.02 nM | IC50, 小鼠脾细胞测定法 (IL-23-stimulated IL-17 secretion of mouse splenocytes) [4]: 0.002 nM
B2: MAbQF37 (antibody, V domains shown)
VH: B1 VH with A107D, D108Q
VL: B1 VL
notes: Humanised antibody

Reference: patent CN101248088A (LILLY CO ELI, dated 2008)
